Test results: patent publication US20120093805A1 (Kyowa Kirin, published 2012)
Changes are numbered by the printed parent chain. Blank lines part the entries; values can stand above or below the binder they belong to.

How the values were obtained:
[1] = biological target: T1, human sugar chain-deficient CD27 expressed on Lec8 cells (human, UniProt P26842 20-260, O-linked sugar chains to which galactose is not bound, from expression in Lec8 cells); assay: flow cytometry (FCM) on CD27/Lec8-M19 cells [A]
T1 construct: CD27/Lec8-4 and CD27/Lec8-M19 are two clones that carry the same protein; also called CD27/Lec8-4; CD27/Lec8-M19
T1 sequence: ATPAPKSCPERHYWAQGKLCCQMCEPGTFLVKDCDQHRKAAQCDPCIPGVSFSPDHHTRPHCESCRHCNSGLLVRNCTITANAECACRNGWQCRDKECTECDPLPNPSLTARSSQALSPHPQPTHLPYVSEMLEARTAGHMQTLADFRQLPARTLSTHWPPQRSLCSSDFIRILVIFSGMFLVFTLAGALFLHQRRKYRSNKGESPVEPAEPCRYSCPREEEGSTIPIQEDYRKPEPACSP
Protocol: Reaction specificity of the anti-sugar chain-deficient CD27 humanized antibody was measured in the same manner as in Example 7(2). Regarding the cell lines, the CD27/DG44-4 cell and CD27/Lec8-M19 cell having almost the same antigen expression quantity, prepared by the same method of Example 2, were used as assaying cells.

[2] = biological target: T1, human sugar chain-deficient CD27 …; assay: flow cytometry (FCM) on CD27/Lec8-4 cells [A) (a]
Protocol: The CD27/DG44-4, CD27/Lec8-4 and Lec8 cells constructed in the same manner as in Example 2 were used as assay cells. The CD27/DG44-4 subcultured in an HT-medium supplemented with 500 μg/mL of G418, and the CD27/Lec8-4 subcultured in an HT-medium supplemented with 50 nmol/L of MTX and 500 μg/mL of G418 were peeled off using a 0.02% EDTA solution, and then washed with PBS.
After the reaction was complete, centrifugation was carried out twice with PBS, and ALEXA Fluoro 488-labeled anti-human immunoglobulin G(H+L), ALEXA Fluoro 488-labeled anti-mouse immunoglobulin G(H+L) or ALEXA Fluoro 488-labeled anti-human immunoglobulin M(μ) as a secondary antibody was added at a concentration of 50 μL/well, followed by reaction at ice temperature under shading for 30 minutes.
Again, centrifugation was repeated twice using PBS, and the cells were washed and suspended in 500 μL of 1% BSA-PBS. The fluorescence of 510 to 530 nm excited with a 488 nm argon laser was measured by a flow cytometer (manufactured by Beckman Coulter, Cytomics FC500 MPL).

[3] = biological target: T2, Lec8-produced CD27-Fc (human sugar chain-deficient CD27-Fc) (human, O-linked sugar chains to which galactose is not bound (Tn antigen), from production in Lec8 cells); assay: SPR, BIACORE T100, as in Example 7(1): Lec8-derived CD27-Fc on CM5 chip, antibody as analyte, bivalent analyte model
T2 construct: also called Lec8-derived CD27-Fc
Protocol: In order to analyze binding activity of anti-sugar chain-deficient CD27 humanized antibody to human sugar chain-deficient CD27 reaction kinetically, it was measured in the same manner as in Example 7(1) using BIACORE T100 (manufactured by BIACORE).

[4] = biological target: T2, Lec8-produced CD27-Fc (human sugar …); assay: SPR, Biacore T100; Lec8-derived CD27-Fc amine-coupled to CM5 chip, antibody as analyte, single-cycle kinetics, bivalent analyte model
Protocol: In order to kinetically analyze the binding activity of the anti-sugar chain-deficient CD27 chimeric antibodies chimeric KM4026, chimeric KM4028, and chimeric KM4030 to the human sugar chain-deficient CD27-Fc, the binding activity was measured by surface plasmon resonance method (SPR method). All of the following manipulations were carried out using Biacore T100 (manufactured by GE Healthcare Bio-Sciences).
The Lec8-derived CD27-Fc obtained in Example 1(7) was immobilized on a CM5 sensor chip (manufactured by GE Healthcare Bio-Sciences) by amine coupling. Assay samples (chimeric KM4026, chimeric KM4028, chimeric KM4030 and chimeric KM4031), which were serially 3-fold diluted from 9 μg/mL to give 5 different concentrations, were sequentially and continuously added to the CD27-Fc-immobilized chip in order of increasing concentrations, in accordance with an automated program (Single Kinetix), followed by measurement.
Using the analysis software, Biacore T100 Evaluation software (manufactured by Biacore) installed on the apparatus, the analysis was carried out using Bivalent Analyte Model to calculate thereby an association rate constant ka and a dissociation rate constant kd of each antibody for the human sugar chain-deficient CD27-Fc.

[5] = biological target: T3, sugar chain-deficient cynomolgus CD27 (C-terminal His tag) expressed on Lec8 cells (cynomolgus); assay: flow cytometry (FCM) on cynomolgus CD27/Lec8 cells (Example 11(5)) [A]
T3 construct: whole, on cells; also called cynomolgus CD27/Lec8 cell; sugar chain-deficient cynomolgus CD27 cell
Protocol: Binding activity of the anti-sugar chain-deficient CD27 humanized antibodies HV0LV0, HV5LV0 and HV7LV0 for cynomolgus CD27 expression cells was measured by a fluorescent cell staining method (cytometer analysis) in the same manner as in Example 9(1). The cynomolgus CD27/DG44 cell and cynomolgus CD27/Lec8 cell prepared in Example 8 were used as the cynomolgus CD27 expression cells.

EC50 (read off the curve) [1]: ~0.2 µg/mL
EC50 (read off the curve) [2]: ~0.1 µg/mL
Kd [3]: 1.1 nM
koff [3]: 0.00082 s⁻¹
kon [3]: 740000 M⁻¹ s⁻¹
Kd [4]: 1.07 nM
koff [4]: 0.00034 s⁻¹
kon [4]: 290000 M⁻¹ s⁻¹
B1: anti-sugar chain-deficient CD27 chimeric antibody chimeric KM4030 (antibody, human IgG1, V domains shown)
VH: EVQLVESGGGLVQPGRSLKLSCVASGFTFNNYWMTWIRQAPGKGLEWIASITNSGGSTYYPDSVKGRFTISRDNAKGTLYLQMNSLRSEDTATYYCTRDVNTYYGYNALFDYWGQGVMVTVSS
VL: DIQMTQSPSVLSASVGDRVTLNCKASQNINEYLNWYQQKLGEAPKLLIYNTNNLQTGIPSRFSGSGSGTDFTLTISSLQPEDFAAYFCFQHNSWPYTFGAGTKLELK
notes: made in FUT8 knockout CHO cells, no core fucose; also called anti-sugar chain-deficient CD27 chimeric antibody KM4030

Kd [4]: 0.51 nM
koff [4]: 0.0002 s⁻¹
kon [4]: 400000 M⁻¹ s⁻¹
B5: anti-sugar chain-deficient CD27 chimeric antibody chimeric KM4031 (antibody, human IgG1, V domains shown)
VH: EVQLVESGGGLVEPGRSMKLSCAASGFTFSDYGMAWVRQAPTKGLEWVATITYDGSIYYRDSVKGRFTISRDNAKSTLYLQMNSLRSEDTATYYCTRDPGLYYFDFWGQGVMVTVSS
VL: DIVMTQSPSSLAVSAGETVTLNCQSSQSLLYSGNQKNYLAWYQQKPGQSPKLLIYWASTRQSGVPDRFIGSGSGTDFTLTISSVQAEDLAIYYCQQYYNTPRTFGGGTKLELK
notes: made in FUT8 knockout CHO cells, no core fucose; also called chimeric KM403I

More lines, now with the values behind:

B2: anti-sugar chain-deficient CD27 humanized antibody HV5LV0 (antibody, human IgG1, V domains shown)
VH: B1 VH with Q13K, K19R, V23A, T78S, S88A, T93V, Q115L, V117T, M118L
VL: B1 VL with V10S, L21I, N22T, L40P, E42K, I58V, A85T, F87Y, A100Q, L106I
EC50 (read off the curve) [5]: ~0.2 µg/mL

B3: anti-sugar chain-deficient CD27 humanized antibody HV0LV0 (antibody, human IgG1, V domains shown)
VH: EVQLVESGGGLVKPGRSLRLSCAASGFTFSNYWMTWIRQAPGKGLEWVSSITNSGGSTYYPDSVKGRFTISRDNAKNSLYLQMNSLRAEDTAVYYCARDVNTYYGYNALFDYWGLGTLVTVSS
VL: B1 VL with V10S, L21I, N22T, L40P, E42K, I58V, A85T, F87Y, A100Q, L106I
EC50 (read off the curve) [5]: ~0.2 µg/mL

B4: anti-sugar chain-deficient CD27 humanized antibody HV7LV0 (antibody, human IgG1, V domains shown)
VH: B3 VH with S30N, V48I, S49A, N77G, V93T, A97T, T117V
VL: B1 VL with V10S, L21I, N22T, L40P, E42K, I58V, A85T, F87Y, A100Q, L106I
EC50 (read off the curve) [5]: ~0.2 µg/mL
